From patent publication US20260055205A1 (published 2026)

Tests used:
human CD3 epsilon = target: T1, human CD3 epsilon (human, UniProt P07766 23-126, limits assumed); experiment: Octet, crude lysate
T1 construct: also called huCD3e
Description: Pool 2 consisted of paTCE molecules each containing PSMA.262 and one of 64 CD3.23 mutation combination variants. Stability and affinity of the individually expressed molecules in the form of crude lysate was evaluated by Octet. […] The binding of these anti-CD3 molecules (CD3.227, CD3.228, CD3.229 and CD3.230) to human and cynomolgus CD3 was measured by Octet and the Tm was measured by Differential Scanning Fluorimetry. All variants were paired with PSMA.262 except for CD3.23 which was paired with PSMA.5.

human PSMA = target: T2, human PSMA (human, UniProt Q04609 44-750, limits assumed); experiment: binding screen
T2 construct: also called huPSMA; hPSMA
T2 sequence (Q04609 44-750 limits assumed): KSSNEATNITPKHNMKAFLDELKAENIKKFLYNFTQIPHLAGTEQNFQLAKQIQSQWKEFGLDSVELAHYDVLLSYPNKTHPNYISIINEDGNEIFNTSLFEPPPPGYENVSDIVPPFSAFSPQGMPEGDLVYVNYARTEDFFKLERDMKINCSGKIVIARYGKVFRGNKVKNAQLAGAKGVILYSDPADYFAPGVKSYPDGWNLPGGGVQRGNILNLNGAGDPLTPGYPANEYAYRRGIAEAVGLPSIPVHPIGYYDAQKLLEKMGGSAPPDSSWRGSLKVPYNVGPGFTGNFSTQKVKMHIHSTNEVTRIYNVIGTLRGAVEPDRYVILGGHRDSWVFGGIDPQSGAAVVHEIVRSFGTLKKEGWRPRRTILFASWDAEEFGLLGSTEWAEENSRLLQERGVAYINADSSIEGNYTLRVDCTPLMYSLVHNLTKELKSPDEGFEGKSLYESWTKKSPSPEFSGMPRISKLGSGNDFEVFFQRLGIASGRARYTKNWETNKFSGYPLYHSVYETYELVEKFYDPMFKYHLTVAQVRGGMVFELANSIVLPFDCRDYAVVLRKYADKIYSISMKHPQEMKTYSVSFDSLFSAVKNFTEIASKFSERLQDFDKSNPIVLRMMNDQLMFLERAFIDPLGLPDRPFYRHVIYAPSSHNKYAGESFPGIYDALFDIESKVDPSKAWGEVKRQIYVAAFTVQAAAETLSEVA

T1 sequence (P07766 23-126 limits assumed): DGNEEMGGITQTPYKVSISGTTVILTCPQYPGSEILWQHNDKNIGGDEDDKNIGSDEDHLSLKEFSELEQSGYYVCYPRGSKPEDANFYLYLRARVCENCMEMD

Binder	Kd (human CD3 epsilon) [nM]	Kd (human PSMA) [nM]	further results
CD3.249 (bispecific antibody, V domains shown, paTCE with PSMA.262; also called AC3680) VH: EVQLVESGGGIVQPGGSLRLSCAASGFTFNTYAMNWVRQAPGKGLEWVARIRSKTNNYATTYADSVKDRFTISRDDSKNTLYLQMNSLKTEDTAVYYCVRHENFGNSYVSWFAHWGQGTLVTVSS VL: ELVVTQEPSLTVSPGGTVTLTCRSSNGAVTSSNYANWVQQKPGQAPRGLIGGTNKRAPGTPARFSGSLLGGKAALTLSGVQPEDEAVYYCALWYPNLWVFGGGTKLTVL	128		
CD3.253 (bispecific antibody, V domains shown, paTCE with PSMA.262; also called AC3684) VH: EVQLVESGGGIVQPGGSLRLSCAASGFTFNTYAMNWVRQAPGKGLEWVGRIRSKTNNYATTYADSVKDRFTISRDDSKNTVYLQMNSLKTEDTAVYYCVRHENFGNSYVSWFAHWGQGTLVTVSS VL: ELVVTQEPSLTVSPGGTVTLTCRSSNGAVTSSNYANWVQQKPGQAPRGLIGGTNKRAPGTPARFSGSLLGGKAALTLSGVQPEDEAVYYCALWYPNLWVFGGGTKLTVL	79.9		
CD3.254 (bispecific antibody, V domains shown, paTCE with PSMA.262; also called AC3685) VH: EVQLVESGGGIVQPGGSLRLSCAASGFTFNTYAMNWVRQAPGKGLEWVGRIRTKYNNYATTYADSVKDRFTISRDDSKNTVYLQMNELKTEDTAVYYCVRHENFGNSYVSWFAHWGQGTLVTVSS VL: ELVVTQEPSLTVSPGGTVTLTCRSSNGAVTSSNYANWVQQKPGQAPRGLIGGTNKRAPGTPARFSGSLLGGKAALTLSGVQPEDEAVYYCALWYPNLWVFGGGTKLTVL	32.3		
CD3.258 (bispecific antibody, V domains shown, paTCE with PSMA.262; also called AC3689) VH: EVQLVESGGGIVQPGGSLRLSCAASGFTFNTYAMNWVRQAPGKGLEWVGRIRTKYNNYATTYADSVKDRFTISRDDSKNTLYLQMNSLKTEDTAVYYCVRHENFGNSYVSWFAHWGQGTLVTVSS VL: ELVVTQEPSLTVSPGGTVTLTCRSSNGAVTSSNYANWVQQKPGQAPRGLIGGTNKRAPGTPARFSGSLLGGKAALTLSGVQPEDEAVYYCALWYPNLWVFGGGTKLTVL	38		
CD3.252 (bispecific antibody, V domains shown, paTCE with PSMA.262; also called AC3683) VH: EVQLVESGGGIVQPGGSLRLSCAASGFTFNTYAMNWVRQAPGKGLEWVGRIRSKKNNYATTYADSVKDRFTISRDDSKNTVYLQMNSLKTEDTAVYYCVRHENFGNSYVSWFAHWGQGTLVTVSS VL: ELVVTQEPSLTVSPGGTVTLTCRSSNGAVTSSNYANWVQQKPGQAPRGLIGGTNKRAPGTPARFSGSLLGGKAALTLSGVQPEDEAVYYCALWYPNLWVFGGGTKLTVL	22.9		
CD3.255 (bispecific antibody, V domains shown, paTCE with PSMA.262; also called AC3686) VH: EVQLVESGGGIVQPGGSLRLSCAASGFTFNTYAMNWVRQAPGKGLEWVGRIRSKRNNYATTYADSVKDRFTISRDDSKNTVYLQMNELKTEDTAVYYCVRHENFGNSYVSWFAHWGQGTLVTVSS VL: ELVVTQEPSLTVSPGGTVTLTCRSSNGAVTSSNYANWVQQKPGQAPRGLIGGTNKRAPGTPARFSGSLLGGKAALTLSGVQPEDEAVYYCALWYPNLWVFGGGTKLTVL	22.4		
CD3.257 (bispecific antibody, V domains shown, paTCE with PSMA.262; also called AC3688) VH: EVQLVESGGGIVQPGGSLRLSCAASGFTFNTYAMNWVRQAPGKGLEWVGRIRSKTNNYATTYADSVKDRFTISRDDSKNTVYLQMNELKTEDTAVYYCVRHENFGNSYVSWFAHWGQGTLVTVSS VL: ELVVTQEPSLTVSPGGTVTLTCRSSNGAVTSSNYANWVQQKPGQAPRGLIGGTNKRAPGTPARFSGSLLGGKAALTLSGVQPEDEAVYYCALWYPNLWVFGGGTKLTVL	159		
CD3.250 (bispecific antibody, V domains shown, paTCE with PSMA.262; also called AC3681) VH: EVQLVESGGGIVQPGGSLRLSCAASGFTFNTYAMNWVRQAPGKGLEWVGRIRTKYNNYATTYADSVKDRFTISRDDSKNTVYLQMNSLKTEDTAVYYCVRHENFGNSYVSWFAHWGQGTLVTVSS VL: ELVVTQEPSLTVSPGGTVTLTCRSSNGAVTSSNYANWVQQKPGQAPRGLIGGTNKRAPGTPARFSGSLLGGKAALTLSGVQPEDEAVYYCALWYPNLWVFGGGTKLTVL	31		
CD3.259 (bispecific antibody, V domains shown, paTCE with PSMA.262; also called AC3690) VH: EVQLVESGGGIVQPGGSLRLSCAASGFTFNTYAMNWVRQAPGKGLEWVGRIRSKRNNYATTYADSVKDRFTISRDDSKNTLYLQMNSLKTEDTAVYYCVRHENFGNSYVSWFAHWGQGTLVTVSS VL: ELVVTQEPSLTVSPGGTVTLTCRSSNGAVTSSNYANWVQQKPGQAPRGLIGGTNKRAPGTPARFSGSLLGGKAALTLSGVQPEDEAVYYCALWYPNLWVFGGGTKLTVL	29.4		
PSMA.306 (bispecific antibody, V domains shown, TCE with CD3.23; also called AC3708) VH: QVQLVESGGGVVQPGRSLRLSCAASGRTFGIYVMGWFRQAPGKEREFVGAMSWSGSNRKVSDSVKGRFTISRDNSKNTLYLQMNSLRAEDTAVYYCAASNKLYGRTWYDFNESDYWGQGTQVTVSS		10.4	
PSMA.305 (bispecific antibody, V domains shown, TCE with CD3.23; also called AC3707) VH: QVQLVESGGGVVQPGRSLRLSCAASGRTFGIYVWGWFRQAPGKEREFVGAISWSGSNRKVSDSVKGRFTISRDNSKNTLYLQMNSLRAEDTAVYYCAASNKLYGRTWYDFNESDYWGQGTQVTVSS			binding result (human PSMA): binds

Further lines, with some results ahead:

Kd (human CD3 epsilon) [nM]	Kd (human PSMA) [nM]	Binder	further results
7.2		CD3.263 (bispecific antibody, V domains shown, paTCE with PSMA.262; also called AC3694) VH: EVQLVESGGGIVQPGGSLKLSCAASGFTFNTYAMNWVRQAPGKGLEWVGRIRTKRNNYATYYADSVKGRFTISRDDSKNTVYLQMNSLKTEDTAVYYCVRHENFGNSYVSWFAHWGQGTLVTVSS VL: ELVVTQEPSLTVSPGGTVTLTCRSSNGAVTSSNYANWVQQKPGQAPRGLIGGTNKRAPGTPARFSGSLLGGKAALTLSGVQPEDEAVYYCALWYPNLWVFGGGTKLTVL	
97		CD3.261 (bispecific antibody, V domains shown, paTCE with PSMA.262; also called AC3692) VH: EVQLVESGGGIVQPGGSLRLSCAASGFTFNTYAMNWVRQAPGKGLEWVGRIRSKTNNYATTYADSVKDRFTISRDDSKNTLYLQMNSLKTEDTAVYYCVRHENFGNSYVSWFAHWGQGTLVTVSS VL: ELVVTQEPSLTVSPGGTVTLTCRSSNGAVTSSNYANWVQQKPGQAPRGLIGGTNKRAPGTPARFSGSLLGGKAALTLSGVQPEDEAVYYCALWYPNLWVFGGGTKLTVL	
4.5		CD3.264 (bispecific antibody, V domains shown, paTCE with PSMA.262; also called AC3695) VH: EVQLVESGGGIVQPGGSLKLSCAASGFTFSTYAMNWVRQAPGKGLEWVGRIRTKRNNYATYYADSVKGRFTISRDDSKNTVYLQMNSLKTEDTAVYYCVRHENFGNSYVSWFAHWGQGTLVTVSS VL: ELVVTQEPSLTVSPGGTVTLTCRSSNGAVTSSNYANWVQQKPGQAPRGLIGGTNKRAPGTPARFSGSLLGGKAALTLSGVQPEDEAVYYCALWYPNLWVFGGGTKLTVL	
25.4		CD3.262 (bispecific antibody, V domains shown, paTCE with PSMA.262; also called AC3693) VH: EVQLVESGGGIVQPGGSLRLSCAASGFTFNTYAMNWVRQAPGKGLEWVGRIRSKRNNYATTYADSVKDRFTISRDDSKNTLYLQMNELKTEDTAVYYCVRHENFGNSYVSWFAHWGQGTLVTVSS VL: ELVVTQEPSLTVSPGGTVTLTCRSSNGAVTSSNYANWVQQKPGQAPRGLIGGTNKRAPGTPARFSGSLLGGKAALTLSGVQPEDEAVYYCALWYPNLWVFGGGTKLTVL	
45.6		CD3.260 (bispecific antibody, V domains shown, paTCE with PSMA.262; also called AC3691) VH: EVQLVESGGGIVQPGGSLRLSCAASGFTFNTYAMNWVRQAPGKGLEWVGRIRSKKNNYATTYADSVKDRFTISRDDSKNTLYLQMNSLKTEDTAVYYCVRHENFGNSYVSWFAHWGQGTLVTVSS VL: ELVVTQEPSLTVSPGGTVTLTCRSSNGAVTSSNYANWVQQKPGQAPRGLIGGTNKRAPGTPARFSGSLLGGKAALTLSGVQPEDEAVYYCALWYPNLWVFGGGTKLTVL	
	10.3	PSMA.303 (bispecific antibody, V domains shown, TCE with CD3.23; also called AC3705) VH: QVQLVESGGGVVQPGRSLRLSCAASGRTFGIYVMGWFRQAPGKEREFVGAMSWSGSNRKVSDSVKGRFTISRDNSKNTLYLQMNSLRAEDTAVYFCAASNKLYGRTWYDFNESDYWGQGTQVTVSS	
	8.5	PSMA.309 (bispecific antibody, V domains shown, TCE with CD3.23; also called AC3711) VH: QVQLVESGGGVVQPGRSLRLSCAASGRTFGIYVWGWFRQAPGKEREFVGAMSWSGSNRKVSDSVKGRFTISRDNSKNTLYLQMNSLRAEDTAVYFCAASNKWYGRTWYDFNESDYWGQGTQVTVSS	
	23.1	PSMA.310 (bispecific antibody, V domains shown, TCE with CD3.23; also called AC3712) VH: QVQLVESGGGVVQPGRSLRLSCAASGRTFGIYVMGWFRQAPGKEREFVGAISWSGSNRKVSDSVKGRFTISRDNSKNTLYLQMNSLRAEDTAVYYCGGSNKLYGRTWYDFNESDYWGQGTQVTVSS	
	6	PSMA.307 (bispecific antibody, V domains shown, TCE with CD3.23; also called AC3709) VH: QVQLVESGGGVVQPGRSLRLSCAASGRTFGIYVWGWFRQAPGKEREFVGAMSWSGSNRKVSDSVKGRFTISRDNSKNTLYLQMNSLRAEDTAVYYCAASNKLYGRTWYDFNESDYWGQGTQVTVSS	
	5.9	PSMA.304 (bispecific antibody, V domains shown, TCE with CD3.23; also called AC3706) VH: QVQLVESGGGVVQPGRSLRLSCAASGRTFGIYVWGWFRQAPGKEREFVGAMSWSGSNRKVSDSVKGRFTISRDNSKNTLYLQMNSLRAEDTAVYFCAASNKLYGRTWYDFNESDYWGQGTQVTVSS	
	8.8	PSMA.308 (bispecific antibody, V domains shown, TCE with CD3.23; also called AC3710) VH: QVQLVESGGGVVQPGRSLRLSCAASGRTFGIYVWGWFRQAPGKEREFVGAMSWSGSNRKVSDSVKGRFTISRDNSKNTLYLQMNSLRAEDTAVYYCAASNKWYGRTWYDFNESDYWGQGTQVTVSS	
	2.8	PSMA.302 (bispecific antibody, V domains shown, TCE with CD3.23; also called AC3704) VH: QVQLVESGGGVVQPGRSLRLSCAASGRTFGIYVWGWFRQAPGKEREFVGAISWSGSNRKVSDSVKGRFTISRDNSKNTLYLQMNSLRAEDTAVYFCAASNKLYGRTWYDFNESDYWGQGTQVTVSS	
	10	PSMA.301 (bispecific antibody, V domains shown, TCE with CD3.23; also called AC3703) VH: QVQLVESGGGVVQPGRSLRLSCAASGRTFGIYVMGWFRQAPGKEREFVGAISWSGSNRKVSDSVKGRFTISRDNSKNTLYLQMNSLRAEDTAVYFCAASNKLYGRTWYDFNESDYWGQGTQVTVSS	
